Assay [1] concerns the target T1, human BiP (Homo sapiens, UniProt P11021).
T1 construct: The human BiP gene except the signal peptide encoding region was obtained from Geneart (Germany); linker […]; made in house; host or cells: HEK 293E cells, transient transfection, PABC674 vector; secreted into the medium
Description: ELISA: binding of BiP-FLAG-His to immobilized (misfolded) protein ligands. The conditions noted are these: ligands coated at 5 μg/ml; 6BB peptides and oxLDL 50 μg/ml. The procedure: Enzyme Linked Immunosorbent Assay for Testing of Chaperone Binding to Misfolded Proteins
Binding of chaperones to immobilized (misfolded) protein ligands was determined using an enzyme linked immuno sorbent assay (ELISA) approach. For this purpose 50 μl/well of potential ligands at indicated concentrations or coat buffer only for control and background measurement purposes, were coated overnight at 4° C. or coated for 1 h at room temperature, with motion, in 50 mM NaHCO3 pH 9.6 (coat buffer). In general, ligands were coated at 5 μg/ml, unless stated otherwise. For example, BiP binding peptides 6BB# and oxLDL were coated at 50 μg/ml. Native haemoglobin (Sigma-Aldrich, H7379), albumin, IgIV Gammagard and ovalbumin controls were prepared from lyophilized stocks. The controls were prepared by dissolving lyophilized proteins at 1 mg/ml in PBS upon resuspending by pipetting, followed by a 30 minutes period at the roller device, at room temperature. The protein solutions were centrifuged for 10 minutes at 16,000*g and diluted in coat buffer. […] After 5 washes with wash buffer followed by two washes with PBS, binding of antibodies was assessed. […] Plates were read at 450 nm. Triplicates were averaged and standard deviations calculated. […] Subsequently, sub-optimal concentrations of chaperones for binding to misfolded protein ligands are determined, and these concentrations are used for inhibition studies. […]
On the technique in general: In an ELISA, binding on a coated surface is turned into a signal by an enzyme label.

The target in assay [2] is T2, human mitochondrial HSP60 (Homo sapiens, UniProt P10809).
T2 construct: Dr. W. van Eden, Utrecht University; host or cells: E. coli
T2 sequence (P10809 27-573): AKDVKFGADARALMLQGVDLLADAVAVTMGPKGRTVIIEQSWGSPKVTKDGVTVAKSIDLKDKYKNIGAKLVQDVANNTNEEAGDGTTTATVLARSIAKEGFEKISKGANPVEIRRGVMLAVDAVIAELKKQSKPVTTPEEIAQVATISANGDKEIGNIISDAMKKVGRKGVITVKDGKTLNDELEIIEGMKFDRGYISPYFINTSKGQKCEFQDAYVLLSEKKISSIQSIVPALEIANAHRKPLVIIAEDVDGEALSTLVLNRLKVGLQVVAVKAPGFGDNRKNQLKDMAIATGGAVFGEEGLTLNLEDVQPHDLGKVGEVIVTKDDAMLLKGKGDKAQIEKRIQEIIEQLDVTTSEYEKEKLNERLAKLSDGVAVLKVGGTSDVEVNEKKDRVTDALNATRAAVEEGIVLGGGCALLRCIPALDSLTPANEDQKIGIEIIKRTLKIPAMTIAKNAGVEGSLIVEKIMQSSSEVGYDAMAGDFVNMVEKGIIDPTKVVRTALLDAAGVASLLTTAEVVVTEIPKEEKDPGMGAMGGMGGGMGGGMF
As to the kind of experiment: ELISA: binding of HSP60 to immobilized (misfolded) protein ligands. As for the experimental part: Recombinant human HSP60 with N-terminal His-tag was a kind gift of Dr. R. van der Zee and Prof. Dr. W. van Eden (Institute of Infectious Diseases and Immunology, Faculty of Veterinary Medicine, Utrecht University, Utrecht, The Netherlands), and was supplied in lyophilized form. The HSP60 was produced in E. coli and purified using Nickel-Sepharose. The HSP60 was lyophilized from 20-40 mM ammonium-bicarbonate solution, after purification, and stored at −20° C. The construct lacks the mitochondrial signal sequence. […] Before use, the lyophilized protein is dissolved at room temperature at 1 mg/ml in 20-40 mM NH4HCO3, resulting in a pH of 7.0. Aliquots are stored at −20° C. or −80° C. The mitochondrial HSP60 is a functional dimer of heptamers (MW(HSP60 monomer)=˜58 kDa), and is involved in multimer protein assembling and aids in transport of unfolded proteins across membranes. For the binding studies, at two occasions separate HSP60 solutions were prepared originating from the same batch of purified protein, lyophilized in separate Eppendorf cups.
Binding of chaperones to immobilized (misfolded) protein ligands was determined using an enzyme linked immuno sorbent assay (ELISA) approach. […] After 5 washes with wash buffer followed by two washes with PBS, binding of antibodies was assessed. […] Plates were read at 450 nm. […]

T1 sequence (P11021 19-654): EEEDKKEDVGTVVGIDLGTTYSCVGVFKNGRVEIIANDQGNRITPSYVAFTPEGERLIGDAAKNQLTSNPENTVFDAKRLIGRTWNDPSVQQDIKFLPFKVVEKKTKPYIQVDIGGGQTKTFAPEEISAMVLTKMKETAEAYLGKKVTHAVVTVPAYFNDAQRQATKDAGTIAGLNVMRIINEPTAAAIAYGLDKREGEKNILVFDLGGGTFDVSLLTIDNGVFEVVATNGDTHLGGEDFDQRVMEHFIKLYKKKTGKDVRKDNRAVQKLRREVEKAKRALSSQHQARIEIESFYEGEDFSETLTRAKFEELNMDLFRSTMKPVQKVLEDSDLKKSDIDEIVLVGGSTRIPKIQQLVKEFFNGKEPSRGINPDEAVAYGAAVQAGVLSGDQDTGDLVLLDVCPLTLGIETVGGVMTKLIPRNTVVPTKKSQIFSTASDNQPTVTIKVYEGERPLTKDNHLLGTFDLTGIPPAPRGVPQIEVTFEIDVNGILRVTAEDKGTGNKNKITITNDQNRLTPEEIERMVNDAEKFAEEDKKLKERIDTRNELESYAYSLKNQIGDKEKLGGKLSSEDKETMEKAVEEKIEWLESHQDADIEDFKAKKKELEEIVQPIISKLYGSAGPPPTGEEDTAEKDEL

B1: ovalbumin: native chicken ovalbumin control (protein)
chain: GSIGAASMEFCFDVFKELKVHHANENIFYCPIAIMSALAMVYLGAKDSTRTQINKVVRFDKLPGFGDSIEAQCGTSVNVHSSLRDILNQITKPNDVYSFSLASRLYAEERYPILPEYLQCVKELYRGGLEPINFQTAADQARELINSWVESQTNGIIRNVLQPSSVDSQTAMVLVNAIVFKGLWEKAFKDEDTQAMPFRVTEQESKPVQMMYQIGLFRVASMASEKMKILELPFASGTMSMLVLLPDEVSGLEQLESIINFEKLTEWTSSNVMEERKIKVYLPRMKMEEKYNLTSVLMAMGITDVFSSSANLSGISSAESLKISQAVHAAHAEINEAGREVVGSAEAGVDAASVSEEFRADHPFLFCIKHIATNAVLFFGRCVSP
On to B1, for which the “Binding of concentration series of BiP to coated ligand” value in assay [1] is “did not bind”. Besides, the “Binding of concentration series of HSP60 to coated ligand” value in assay [2] is given as “did not bind”.

The values are drawn from patent US20100015126A1, “Methods of Binding of Cross-Beta Structures By Chaperones” (priority 2006, published 2010).
